Measured values as given in paper PMC6920965, “Plant Polyphenols Inhibit Functional Amyloid and Biofilm Formation in Pseudomonas Strains by Directing Monomers to Off-Pathway Oligomers” (Biomolecules, 2019).
Each block holds one compound with its values, some of them ahead of it.

Legend:
[1] = biological target: T1, FapC (FapC-UK4) (Pseudomonas fluorescens, UniProt P0DXF5); test: peptide array and SDS-PAGE blot with NBT staining; supported by ThT fibrillation, SEC and SAXS; format: binding
T1 construct: His-tagged FapC wt, 226-residue mature protein without the 24-residue signal peptide
T1 sequence (P0DXF5 25-250): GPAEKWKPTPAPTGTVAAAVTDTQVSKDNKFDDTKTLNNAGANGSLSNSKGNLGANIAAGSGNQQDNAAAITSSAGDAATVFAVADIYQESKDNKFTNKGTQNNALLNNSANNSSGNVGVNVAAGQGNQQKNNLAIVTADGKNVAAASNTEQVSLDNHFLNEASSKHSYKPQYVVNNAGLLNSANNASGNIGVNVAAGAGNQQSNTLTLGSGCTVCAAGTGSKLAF

[2] = biological target: FapC-PAO1 (Pseudomonas aeruginosa, UniProt Q9I2F0); test: ThT fibrillation assay ([…] FapC-PAO1, […] polyphenol) and SDS-PAGE; format: biochemical
FapC-PAO1, sequence (Q9I2F0 25-340): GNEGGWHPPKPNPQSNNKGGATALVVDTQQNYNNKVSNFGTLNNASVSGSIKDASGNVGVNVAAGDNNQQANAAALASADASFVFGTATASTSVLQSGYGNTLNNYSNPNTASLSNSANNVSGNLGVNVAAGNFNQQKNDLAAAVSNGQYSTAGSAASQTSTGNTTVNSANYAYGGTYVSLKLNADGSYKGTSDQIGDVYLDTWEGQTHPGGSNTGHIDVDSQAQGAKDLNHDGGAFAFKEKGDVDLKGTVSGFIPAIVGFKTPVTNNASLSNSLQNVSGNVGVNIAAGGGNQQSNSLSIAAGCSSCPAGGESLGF

[3] = biological target: T2, FapC (FapC-UK4) (Pseudomonas fluorescens, UniProt P0DXF5); test: ThT fibrillation assay of purified FapC; supported by CD, ATR-FTIR, SEC and SAXS of oligomers; format: biochemical
T2 construct: His-tagged FapC wt, mature protein (226 residues)

[4] = biological target: FapC from Pseudomonas sp. UK4, wild type (Pseudomonas sp. UK4); test: SAXS; freshly desalted sample without TCEP; aggregation number (Nagg) by indirect Fourier transformation
[5] = biological target: FapC from Pseudomonas sp. UK4, wild type (Pseudomonas sp. UK4); test: SAXS; oligomers formed in the presence of PGG and purified by SEC; Nagg by indirect Fourier transformation; core-shell model
[6] = biological target: FapC from Pseudomonas sp. UK4, wild type (Pseudomonas sp. UK4); test: SAXS; oligomers formed in the presence of EGCG and purified by SEC; Nagg by indirect Fourier transformation; core-shell model
[7] = biological target: FapC from Pseudomonas sp. UK4, wild type (Pseudomonas sp. UK4); test: SAXS; oligomers formed in the presence of baicalein and purified by SEC; Nagg by indirect Fourier transformation; core-shell model
[8] = biological target: FapC-UK4 mutant lacking all three imperfect repeats (∆R1R2R3) (Pseudomonas sp. UK4); test: SAXS; freshly desalted sample without TCEP; aggregation number (Nagg) by indirect Fourier transformation
[9] = biological target: FapC-UK4 mutant lacking all three imperfect repeats (∆R1R2R3) (Pseudomonas sp. UK4); test: SAXS; oligomers formed in the presence of PGG and purified by SEC; Nagg by indirect Fourier transformation; core-shell model

Compound: O=C(O[C@@H]1Cc2c(O)cc(O)cc2O[C@@H]1c1cc(O)c(O)c(O)c1)c1cc(O)c(O)c(O)c1 [EGCG, epigallocatechin gallate]
peptide array and SDS-PAGE blot with NBT staining; supported by ThT fibrillation [1]: The intensity of EGCG binding varied significantly across the probed peptides (Figure 6C), showing particular affinity for regions
ThT fibrillation assay (30 μM FapC-PAO1, 100 μM polyphenol) and SDS-PAGE [2]: PGG, EGCG, and baicalein keep FapC monomeric or lead to off-pathway oligomers (Figure 4B).

Compound: O=C(OC[C@H]1O[C@@H](OC(=O)c2cc(O)c(O)c(O)c2)[C@H](OC(=O)c2cc(O)c(O)c(O)c2)[C@@H](OC(=O)c2cc(O)c(O)c(O)c2)[C@@H]1OC(=O)c1cc(O)c(O)c(O)c1)c1cc(O)c(O)c(O)c1 [PGG, penta-O-galloyl-β-D-glucose]
IC50 [3]: ~26 µM
ThT fibrillation assay (30 μM FapC-PAO1, 100 μM polyphenol) and SDS-PAGE [2]: PGG, EGCG, and baicalein keep FapC monomeric or lead to off-pathway oligomers (Figure 4B).

Compound: O=c1cc(-c2ccccc2)oc2cc(O)c(O)c(O)c12 [baicalein]
ThT fibrillation assay (30 μM FapC-PAO1, 100 μM polyphenol) and SDS-PAGE [2]: PGG, EGCG, and baicalein keep FapC monomeric or lead to off-pathway oligomers (Figure 4B).

stoichiometry N [4]: 4.4
stoichiometry N [5]: 7.6
stoichiometry N [6]: 6.7
stoichiometry N [7]: 6.7
Compound: FapC from Pseudomonas sp. UK4, wild type (natural protein)

stoichiometry N [8]: 2.7
stoichiometry N [9]: 4.7
Compound: FapC-UK4 mutant lacking all three imperfect repeats (∆R1R2R3) (domain or fragment)
